Laboratory results: the domain aggregation screens of Martell et al. (2025)

Assay: soluble fraction after stress (log2 fold change); higher = more stays soluble; pooled small domains, quantitative proteomics
Settings: stress: 50 degC
Outline: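 Pooled custom libraries of small protein domains were each held under stress at 50°C. The read-out, high-throughput quantitative proteomics, tracked how much of each protein stayed soluble. This is reported as a base-two log fold change used to indicate aggregation propensity. Higher values mean more protein remains in solution.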

Compared with “HMEQIFTELIMDGRVLGENLHRMGVDETWLLRQLRQQGYHSAREVFLAVADANKQVAVYPVS”, “HMPTITSPMVGTFYRAPSPGAAPFIEVGDTVKKGQVIGIIEAMKLLNEVEADKDGVVQAFAAENGEL” is higher in “soluble fraction (log2)” value: -0.308 for the first, 0.262 for the second.

“HMDRRSTTLQDIYTRIDAEEISEALELIPKLGEIEFEQNRAEIAEAAGVRPAVLDKLRKQAAKQENNKK” and “HMPGTEAQDGEVLLDALRRIHPDSSTGTLRRMLTQGRVQVDGTTVHAAKAELTSGQHVEVVAR” are within 0.2 log units of each other in “soluble fraction (log2)” value: -0.0355 for the first, 0.0101 for the second.

Going from “HMRESPYRRVAKFLLLIGTAEAAKIVSRLDQDQVEKVMLELSGIRSVPRDEATVILAEFESLLQQAR” to “HMNQEIELLLREPDFTSAARLAMAINERFTNSARAIDPTSVKVRMPEGLDQASVDFVARLEDIEMSPDT”, the “soluble fraction (log2)” value rises from -1.47 to -0.0281.

First: HMTPYEVLVYESLKQKILSGGYAAGEKIPEQSVSEELGVSRSPLRSAIRRLASEGLIEYYPYRGAFVKA
Second: HMSRWHEFLNKSEDGMKELDEQNQKVLTLLILQRFYQTPFQAKEDEEFYREFFERLSSVNEILG
The “soluble fraction (log2)” value of the first is lower: -0.347 for the first, 0.0126 for the second.

Compared with “HMTEEDVVIFSGLSDRDLKMVQTELANSGIKYTLPTSGTVSVPNSEIARAQMVLAMAGIPRS”, “HMRKEEFIRELVLELKQNVSEQVILEQKRFYEEYILTEVRGGKTEEEVIASLSEPRLLAKSIIDAAEAGGD” is lower in “soluble fraction (log2)” value: 0.167 for the first, -0.155 for the second.

Compared with “HMLDQGTQSRYQIMDGVRALITGDWSSHGAGLVRELSQEVARTSGLTATSERTFFVPFSALS”, “HMKPRVTVVTLGVDDLERAVRFYAEGLGFPTEGIVGREFEFGAVAFFDMQPGLRLALWPRRSLAHDSGLP” is lower in “soluble fraction (log2)” value: 0.0364 for the first, -0.306 for the second.

Compared with “HMAERVWASLLEIKNAVAIEDAKTLEDVDNSEKIAEERIAALNDDAKHPLAIAFIGKLRQDIAEKKIELA”, “HMEVNLEPLIALLRKHRDLDLSGYSKSTLGRRITYFMGLNKISSIDELGRRLAEDDLLFQEFLDKLT” is lower in “soluble fraction (log2)” value: 0.379 for the first, -0.0655 for the second.

“HMYTLGEESDGTVRLLELYDIIKNKNEKIFVVDELDRSLHPNLTFNFVKKYLSIENKSQLIVSTH” and “HMRTAELEVWDDDELNDVVKLIQNNHNINTLKLRFQENVSFSGLSLIAAVLTKQSIILEIEY” are within 0.2 log units of each other in “soluble fraction (log2)” value: -0.0206 for the first, 0.0488 for the second.

“HMAENTIPSVIGKTLSDATFLLESYGYERGGVSEEYSEMPKGVVIRQSPQAGSSADPGTKVNLVVSLGEEI” and “HMAIKTGAVTGHGVKVRKGPSTNEKAIHDVLYGSRLQILEEKNGFLKAKFEDGTTGWISKQFVTTTDKNLL” are within 0.2 log units of each other in “soluble fraction (log2)” value: 0.174 for the first, 0.223 for the second.

First: HMQFYSGLEARLMDPNTPEVFDDPISLMAFLQQKNISRVELEDNLLLPYLKEMAGQPIPKAELLEIIRK
Second: HMSSTSTKTQNIVHIVKSGETLSAIASKYGVSVDNIKKWNNLSSDKLSIGQKLKINPTTQTSS
The “soluble fraction (log2)” value of the first is lower: -0.475 for the first, 0.245 for the second.

First: HMGKAYMVPDVKNKSVNQAQLLLADKHMNGVVVDSSYVKELPAGIVLDQTPVGGMKVKEGRTVYLTINSD
Second: HMPLDYNELRSISPKAARQAILQILAANKGNVSATAKLLGVSRKTVYKAMHKKASGNLDDTSRAPK
The “soluble fraction (log2)” value of the first is higher: -0.0262 for the first, -0.851 for the second.

“HMERYFVLVIYDIVDNKKRLKLSKYLLGYGIRVQKSAFEMMITKEKYNKLIKELPTYIEEGEDSIRLY” and “HMTKGVQMFAEQLKRTRQSRHYSQAEIASKLGVTQQAIAKWETGVSTPSPTSISKLSDILGISTDVLLKGA” are within 0.2 log units of each other in “soluble fraction (log2)” value: 0.132 for the first, 0.0763 for the second.

Going from “HMQDEAQLSMSNKYIFEGNSIVKDNFIEAEKKYRLGVSAKPNNAVGSYNLANAYYNSKLYDEAMLRLL” to “HMVKLSVGDIVQFAGGPHYVSSSAAKPASSPTAGPAKVTMIYQGAKHPYHIVHTTSASTVWGWVDADKVVK”, the “soluble fraction (log2)” value falls from 0.272 to -0.245.

“HMSASLPAAVEDPDLPYRVGAKLRHARWGEGLLVGIQREGSDVIATVHFASVGRKRLSLQYAHLEE” and “HMFEFFKGIYSISLLKKDGIFFVTFKDENKEAVKHIFPEKPTALELGIKVMEMFEYKERYDGII” are within 0.2 log units of each other in “soluble fraction (log2)” value: -0.41 for the first, -0.227 for the second.

Going from “HMDGVLLDHLDGFVTTRRGVEAWLEQPTSFNKPSILLVAADGESTRRAIPSIAFGYDFASRHDIPAYDAG” to “HMGKVTILSNPVKDALVIMGLHNAETIDVRLFDNTGRLVMQGSQSRMDISSLSPGLYILQVNGKILKVIK”, the “soluble fraction (log2)” value falls from -0.496 to -2.21.

“HMAKRTVPSVAEAIDNFRRQHRRMPSYAEMLPLLGVRSKSVVHFWINKLLENGLLEKDDKGYLTPGS” and “HMNNQILYERLRDLRERNHFTQAFVSSKLNIGRATYSNYERGKRTPSLDVIMDLASFYKVPFTYF” are within 0.2 log units of each other in “soluble fraction (log2)” value: -0.00958 for the first, -0.0166 for the second.

Going from “HMESVDRIYERVRRYADDVGTAKIPMKELDDDGPLGTAVSRIRERRKRGELTEEWEARFETLPGWTWAA” to “HMLSTQEYIKKNIENGSWKVGEKIPSENNLTEILGVSRASIRVAIQQFIALDVLNSIHGKGTFVKTNNIMG”, the “soluble fraction (log2)” value rises from 0.0038 to 0.256.

Going from “HMKTVLDSLLRILDSKELDIVVLRHIVGLTLTEIAKEKDMKKGTVFWMYNRAVKKLRLESERMGL” to “HMILNNAKINTELNSLAEFTQRSLDSNTSEIGFYDYKKISYIASFATMKTTNWNVIIRAPINEFMGTVN”, the “soluble fraction (log2)” value rises from -2.11 to 0.101.

Going from “HMRPQELSSLNTNQMRLYNSLPEAFITAEAKDIADKLRYSERSLFRFLNESNLFTKTEHGSYAKKA” to “HMTRQEFIRKLQEALNGKLDAATIQDHLKFYDDYIIEEMRKGKSEQEVLELLGDPWAIAKTIVDAS”, the “soluble fraction (log2)” value rises from 0.133 to 0.349.

First: HMSSDEEQLATLTRLLQKQEQIIQTLGPRNPMVSLQQYANTITKVIEMAGFKDTSQFINSQIP
Second: HMTGKLGKIILQPKQTVYGITKKYQISESELRRLNPQLDSHLKIGDEVILPAENIKKFGGNQPVAVS
The “soluble fraction (log2)” value of the first is lower: -0.0471 for the first, 0.311 for the second.

“HMARYSMLEEQLLQLINKHGTMSTPKLVEATGAPRSTVTYQLRKLLESGTIERTQPARSPKQSYRIKS” and “HMDFITPYEIEQGQYEGAELYEDGKFEEAFSLSSIAAQRGMKTAQYLLGIMFLKGEYVDQSLAIGMAW” are within 0.2 log units of each other in “soluble fraction (log2)” value: -0.238 for the first, -0.272 for the second.

Going from “HMTQEAMRSLRKSLQNLSSRQQVIFMLRHYEGLALKEIAEHLGLETGTVKAHLHRAVTQLRKDLVE” to “HMNYSKQRETILKVLRSTRSHPSVNWIYENVKKEIPDVGLATVYRNLKQLEAAGEIMRIQGDFPEERWDGF”, the “soluble fraction (log2)” value rises from -1.68 to -0.911.

Compared with “HMNAIYKFVLGMIGKRSGVVTTLPSKKQVEFQANMLAEKFMQNGIDPNALKSPEQVKNVLANIDQ”, “HMSESGTFRAEAADAGRRLDVALAERLRLSRAAAQRLIAAGLVLVEGSPARKRQILHAGETVAWRAAPP” is higher in “soluble fraction (log2)” value: -0.737 for the first, -0.127 for the second.

“HMDEPGAGYKWREDVLLRVMASHGIEESLRDDFVRHAVGFDNDDNMYLKKVEIENAAAAWVAN” and “HMSLSASELDQLRMMTKVSHMYHTRGMVQIDIARSLGLSQARVSRLLSAAEDANIVRTVVVA” are within 0.2 log units of each other in “soluble fraction (log2)” value: -0.377 for the first, -0.306 for the second.

Going from “HMTISDEAMQAGRDAFIQALVAMGAEKNADAMASIEKALSADPGNKEYLATRDLIKKSMGMKK” to “HMGAISGEQREFYTVFRGHLNSHVGEFKVEDIENLLMKAKTEVPDLLEEEFLKMGEAILNRYRN”, the “soluble fraction (log2)” value falls from 0.44 to -0.0826.

First: HMSEPFDMAVPLTSGGRRLDQVLAELLPQHSRNRLQGWIRDGLLTLDGVTVTEPKRKLAGGEQLALLLP
Second: HMGNLVDGINKKLTHVRDSLPEGYTLDEFKSAFQQQYPAAYDAYEGDKGKQFDKWLGNVIQSLPKK
The “soluble fraction (log2)” value of the first is lower: -0.13 for the first, 0.161 for the second.

“HMADQVLVMTRAVGQGDIVRNADIGLTSVAVDRAVATIPASQLDKIVGRHALVDLSPGQLLGSHSVGE” and “HMDGLTEQQADDILAFISIKGTNAEVLAALENYAGRNETFDTGLSELKVVASNLAAFGMPEENFVVDL” are within 0.2 log units of each other in “soluble fraction (log2)” value: 0.035 for the first, 0.0102 for the second.

Compared with “HMGSRAEAKEFLQTMLADGRQLATDMEEARQAHDIADRTLRRARKELNVQVYRDGNAWYWELPTPIK”, “HMSDIQKGTQINLVNEPLYVSSKTSIVSTYKTGTYYTWGFEANNRIAITNKLENIGVKGQVTGWINKP” is lower in “soluble fraction (log2)” value: -0.0501 for the first, -1.1 for the second.

Going from “HMNLPTSGVDALTPAERRVARMAGDGQSNREIAQTLFVTRKTVEIHLTSVYRKLGIASRAELSARL” to “HMDYTPIEVKDLPQAIQDALTKNFSEYTVKSAAYQEDEDGVKIYQVTVVDEEGTEANIFFTEKGE”, the “soluble fraction (log2)” value rises from -2.6 to 0.0163.

Going from “HMKTRIQDLRKELGVTQSELADAVDVTRQTIISLEGGRYKASLVLAHKLAQFFHVTIEELFIFD” to “HMISDEELLVSTKKEIMSLATVLTKTDKKDDAIAIMKEYDPAANPNRIKDVNKAKELLERLQKLG”, the “soluble fraction (log2)” value rises from -2.21 to -0.125.

“HMAGITLHAEEGRVRIRSQSEGLVKVLDAMGREQASWPLRSKGWWFFLTEGWAPGTYFVKTESGETQRFLV” and “HMYVKKSSFVKKSLNNYEFKITDNTNDLLIFYKGMLPDLFREEQGIVVEGLIDKNNNIVASKV” are within 0.2 log units of each other in “soluble fraction (log2)” value: 0.0535 for the first, -0.0872 for the second.

Compared with “HMRQYPSGVFKEEGVKAVYIHAGTPFLVIAAQYKIPLARLFEWNNLLPSTEARISQVIYLERPG”, “HMFTYDLSERELTIIELVAKGLNNKELADTLFLSEGTIRNYLSTLLNKLDLRDRTQLAIFYYQHL” is higher in “soluble fraction (log2)” value: -3.67 for the first, -2.62 for the second.

Compared with “HMPTVLKQGSTGQEVKELQQALSKLGYRVTVTGEFDTATHYGVVRFQRKHRLTIDGIVGPQTLSKIRAHQK”, “HMNETRVDQAADLLLALLEKEPKSAAEILDEFEQAGFSKSGLYRAKDALGVVSIRKEGRWVWSLPHSLD” is higher in “soluble fraction (log2)” value: -2.86 for the first, -0.104 for the second.

First: HMKAPLTFVIEGKEYEAFDQYKTGAELKQLAGIPLDTELFLSISKPYQDELIENEKQVNLARPETEYFFVK
Second: HMAENMNAALRVSSLINQIGTVNAKAKDRIESARKAYDALSEAQKAYVANLTTLETAETSLSKL
The “soluble fraction (log2)” value of the first is lower: -0.0489 for the first, 0.179 for the second.

First: HMVELPDLIGKSKRLAFTQLEISGLKIGKIIYEPDLAKDAVLKILYNGKIVKAGEQLPRFATVDLVLG
Second: HMRTYEHALTEEEKELILIVSNLSEYKSLPPSQIVPKLADLGIYIASESSFYRVLRAHNQLHHRGR
The “soluble fraction (log2)” value of the first is higher: -0.0407 for the first, -2.56 for the second.

Compared with “HMYPDNSGDIQQLAQNIFRQENVSVDRDGLALISSRLGSDHAATRSEIEKLALLAGPGGTLTFETISEVLG”, “HMTETEIVIGGKYRHYKGGEYELVSIVKHSETLEELVIYKSLSTGEMWARPKSLFVGLVDGQPRYTL” is lower in “soluble fraction (log2)” value: -0.144 for the first, -1.85 for the second.

Compared with “HMTEQKNNEQQNAVNEKKQALKQLMEKGKEKGSLSYNEVNALLDKLEFTEDQKAIVYDQLHSEDIELQ”, “HMSELPLTQKVAIVMVALGEEASGEVMKHLSDYEIEEITQAIAGLKNISVELMDQILEEYEQHLIAG” is lower in “soluble fraction (log2)” value: 0.193 for the first, -0.459 for the second.

Going from “HMQGEDEILKIHEALEELAQIDARLVRVVEMRYFVGLSNQEIADSLGVTTRTVERDWEKARTFLFNALHP” to “HMEKINLLVENNDNYRLDKIIALNMEELSRTQIQEMIGQGLVLVNGKVEKASYKTKLNDQIEITIED”, the “soluble fraction (log2)” value rises from -1.4 to 0.0401.
